From PMC4512625 (2015)
Ends that are not written are not given here.

Tests used:
human SPAK 452-547(end) = human SPAK 452-547(end) (human, UniProt Q9UEW8 452-545); assay: FP
[1] = molecular target: human SPAK 452-547 with L491A (human, UniProt Q9UEW8 452-545, L491A); assay: FP

B1: Lumio-Green-labelled RFXV-motif-possessing peptide derived from WNK4 (EP4543) (peptide)
peptide: CCPGCCGGGGSEEGKPQLVGRFQVTSSK
modifications: not fully specified (N-terminus); cysteine pairing not given here; also: Lumio Green fluorophore bound to the N-terminal CCPGCC linker
Kd (human SPAK 452-547(end)): 0.6 µM | Kd [1]: 88.2 µM
